Source: patent US20200171136A1 (SUMITOMO DAINIPPON PHARMA, published 2020)

molecular target: T1, Endoplasmic reticulum aminopeptidase 1 (ERAP1) (UniProt Q9NZ08 1-941, limits assumed); assay: cell-based or functional assay
T1 sequence (Q9NZ08 whole entry): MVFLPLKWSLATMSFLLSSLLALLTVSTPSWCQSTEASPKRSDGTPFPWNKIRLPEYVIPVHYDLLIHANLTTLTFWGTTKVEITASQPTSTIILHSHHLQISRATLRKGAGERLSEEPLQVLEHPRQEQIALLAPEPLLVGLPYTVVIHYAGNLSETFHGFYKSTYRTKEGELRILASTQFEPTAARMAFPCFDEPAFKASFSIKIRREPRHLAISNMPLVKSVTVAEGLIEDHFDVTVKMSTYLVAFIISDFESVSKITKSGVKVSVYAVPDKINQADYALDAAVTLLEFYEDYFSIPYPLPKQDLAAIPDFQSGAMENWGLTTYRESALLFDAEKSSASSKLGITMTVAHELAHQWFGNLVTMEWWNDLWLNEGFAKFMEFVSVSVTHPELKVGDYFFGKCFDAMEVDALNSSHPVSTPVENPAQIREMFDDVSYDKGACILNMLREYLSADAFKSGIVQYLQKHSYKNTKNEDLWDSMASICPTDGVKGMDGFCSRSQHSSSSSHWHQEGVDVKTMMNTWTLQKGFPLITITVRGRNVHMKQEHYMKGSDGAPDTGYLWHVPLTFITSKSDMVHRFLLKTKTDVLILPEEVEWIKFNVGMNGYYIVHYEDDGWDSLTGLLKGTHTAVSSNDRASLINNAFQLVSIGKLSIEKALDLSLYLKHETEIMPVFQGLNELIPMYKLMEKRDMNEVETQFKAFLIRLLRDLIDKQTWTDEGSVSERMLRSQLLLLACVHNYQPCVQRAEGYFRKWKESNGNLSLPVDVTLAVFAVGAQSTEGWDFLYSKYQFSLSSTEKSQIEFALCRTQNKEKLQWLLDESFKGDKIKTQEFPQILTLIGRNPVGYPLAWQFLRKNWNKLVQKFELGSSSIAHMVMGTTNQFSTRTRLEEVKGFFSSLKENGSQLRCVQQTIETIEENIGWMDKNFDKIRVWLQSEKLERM

Row | formation rate (%) 1 hr later | formation rate (%) 2 hr later | formation rate (%) 4 hr later | formation rate (%) 8 hr later | Binder
1 | 28.7% | 34.5% | 36.5% | 36.8% | CMVLQELNVTV [peptide CMVLQELNVTV (SEQ ID NO: 94)]
2 | 58.3% | 94.9% | 88.4% | 88.3% | CLGLYDGMEHL [peptide CLGLYDGMEHL (SEQ ID NO: 90)]
3 | 83.4% | 85.6% | 78.8% | 83.9% | CVLQELNVTV [peptide CVLQELNVTV (SEQ ID NO: 99)]
4 | 31.1% | 36.9% | 38.1% | 36.1% | CLVLQELNVTV [peptide CLVLQELNVTV (SEQ ID NO: 93)]
5 | 90.6% | 103% | 96% | 101% | CMGLYDGMEHL [peptide CMGLYDGMEHL (SEQ ID NO: 91)]
6 | 46.1% | 49.9% | 51.3% | 53.5% | CAVLQELNVTV [peptide CAVLQELNVTV (SEQ ID NO: 92)]
7 | 95.1% | 106% | 100% | 101% | H-CGLYDGMEHL-OH [peptide CGLYDGMEHL (SEQ ID NO: 98)]
8 | 87.8% | 99.4% | 103% | 97.5% | CAGLYDGMEHL [peptide CAGLYDGMEHL (SEQ ID NO: 89)]

molecular target: T1, Endoplasmic reticulum aminopeptidase 1 …; assay: cell-based or functional assay; remark: another data set of the same source

Row | formation rate of … (SEQ ID NO: 19)(%) | Binder
9 | 56.9% | CQGLYDGMEHL [peptide CQGLYDGMEHL (SEQ ID NO: 162)]
10 | 0% | CKGLYDGMEHL [peptide CKGLYDGMEHL (SEQ ID NO: 167)]
11 | 0% | CHGLYDGMEHL [peptide CHGLYDGMEHL (SEQ ID NO: 165)]
12 | 0.4% | CIGLYDGMEHL [peptide CIGLYDGMEHL (SEQ ID NO: 166)]
13 | 0% | CPGLYDGMEHL [peptide CPGLYDGMEHL (SEQ ID NO: 169)]
14 | 6.2% | CEGLYDGMEHL [peptide CEGLYDGMEHL (SEQ ID NO: 163)]
15 | 0% | CFGLYDGMEHL [peptide CFGLYDGMEHL (SEQ ID NO: 168)]
16 | 0% | CGGLYDGMEHL [peptide CGGLYDGMEHL (SEQ ID NO: 164)]

molecular target: T1, Endoplasmic reticulum aminopeptidase 1 …; assay: cell-based or functional assay; remark: another data set of the same source

Row | formation rate of … (SEQ ID NO: 19)(%) | Binder
17 | 0% | CWGLYDGMEHL [peptide CWGLYDGMEHL (SEQ ID NO: 171)]
18 | 0% | CVGLYDGMEHL [peptide CVGLYDGMEHL (SEQ ID NO: 173)]
19 | 89.4% | CTGLYDGMEHL [peptide CTGLYDGMEHL (SEQ ID NO: 170)]
20 | 82.2% | CNGLYDGMEHL [peptide CNGLYDGMEHL (SEQ ID NO: 175)]
21 | 1.1% | CSGLYDGMEHL [peptide CSGLYDGMEHL (SEQ ID NO: 177)]
22 | 25% | CDGLYDGMEHL [peptide CDGLYDGMEHL (SEQ ID NO: 176)]
23 | 0% | CRGLYDGMEHL [peptide CRGLYDGMEHL (SEQ ID NO: 174)]
24 | 0% | CYGLYDGMEHL [peptide CYGLYDGMEHL (SEQ ID NO: 172)]

molecular target: T1, Endoplasmic reticulum aminopeptidase 1 …; assay: cell-based or functional assay; remark: another data set of the same source

Row | formation rate of … (SEQ ID NO: 19)(%) | Binder
25 | 2.4% | VCGLYDGMEHL [peptide VCGLYDGMEHL (SEQ ID NO: 184)]
26 | 5.2% | ACGLYDGMEHL [peptide ACGLYDGMEHL (SEQ ID NO: 185)]
27 | 0% | WCGLYDGMEHL [peptide WCGLYDGMEHL (SEQ ID NO: 182)]
28 | 19.2% | PCGLYDGMEHL [peptide PCGLYDGMEHL (SEQ ID NO: 179)]
29 | 7.3% | TCGLYDGMEHL [peptide TCGLYDGMEHL (SEQ ID NO: 181)]
30 | 0% | RCGLYDGMEHL [peptide RCGLYDGMEHL (SEQ ID NO: 186)]
31 | 3.6% | QCGLYDGMEHL [peptide QCGLYDGMEHL (SEQ ID NO: 178)]
32 | 5.7% | YCGLYDGMEHL [peptide YCGLYDGMEHL (SEQ ID NO: 183)]
33 | 22.2% | SCGLYDGMEHL [peptide SCGLYDGMEHL (SEQ ID NO: 180)]

molecular target: T1, Endoplasmic reticulum aminopeptidase 1 …; assay: cell-based or functional assay; remark: another data set of the same source

Row | formation rate of … (SEQ ID NO: 19)(%) | Binder
34 | 0% | ICGLYDGMEHL [peptide ICGLYDGMEHL (SEQ ID NO: 192)]
35 | 0% | KCGLYDGMEHL [peptide KCGLYDGMEHL (SEQ ID NO: 194)]
36 | 17.6% | FCGLYDGMEHL [peptide FCGLYDGMEHL (SEQ ID NO: 196)]
37 | 5.8% | MCGLYDGMEHL [peptide MCGLYDGMEHL (SEQ ID NO: 195)]
38 | 2.9% | ECGLYDGMEHL [peptide ECGLYDGMEHL (SEQ ID NO: 189)]
39 | 0% | LCGLYDGMEHL [peptide LCGLYDGMEHL (SEQ ID NO: 193)]
40 | 0% | HCGLYDGMEHL [peptide HCGLYDGMEHL (SEQ ID NO: 191)]
41 | 18.2% | NCGLYDGMEHL [peptide NCGLYDGMEHL (SEQ ID NO: 187)]
42 | 10.4% | GCGLYDGMEHL [peptide GCGLYDGMEHL (SEQ ID NO: 190)]
43 | 3.2% | DCGLYDGMEHL [peptide DCGLYDGMEHL (SEQ ID NO: 188)]

molecular target: T1, Endoplasmic reticulum aminopeptidase 1 …; assay: cell-based or functional assay; remark: another data set of the same source

Row | formation rate of … (SEQ ID NO: 43)(%) | Binder
44 | 1.1% | GCVLQELNVTV [peptide GCVLQELNVTV (SEQ ID NO: 149)]
45 | 1.8% | ACVLQELNVTV [peptide ACVLQELNVTV (SEQ ID NO: 143)]
46 | 1.3% | SCVLQELNVTV [peptide SCVLQELNVTV (SEQ ID NO: 157)]
47 | 0.7% | YCVLQELNVTV [peptide YCVLQELNVTV (SEQ ID NO: 160)]
